This sample holds only a part of the variants without activity.
How the values were obtained:
biotinyl-Val-oxazolone = assay: self-aminoacylation, catalytic enhancement (BVO) (fold over background); higher = more active; k-Seq, kA / k0A0; sequences stand for … in GGGAAUGGAUCCACAUCUACGAAUUC…UUCACUGCAGACUUGACGAAGCUG
In short: (§1)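 Mutagenized RNA pools (0.43 μM; 21-nt variable region) were treated with 2–1250 μM of each biotinyl-aminoacyl-oxazolone. Conditions were 50 μL HEPES/NaCl/KCl/MgCl2/CaCl2 buffer, 5% acetonitrile, pH 6.9–7.0, room temperature, 90 minutes. Catalytic enhancement, the median kA relative to the uncatalyzed rate, was derived from streptavidin capture, qPCR and Illumina sequencing.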

biotinyl-Met-oxazolone = assay: self-aminoacylation, catalytic enhancement (BMO) (fold over background); higher = more active; k-Seq, kA / k0A0; sequences stand for … in GGGAAUGGAUCCACAUCUACGAAUUC…UUCACUGCAGACUUGACGAAGCUG
In short: as §1

biotinyl-Phe-oxazolone = assay: self-aminoacylation, catalytic enhancement (BFO) (fold over background); higher = more active; k-Seq, kA / k0A0; sequences stand for … in GGGAAUGGAUCCACAUCUACGAAUUC…UUCACUGCAGACUUGACGAAGCUG
In short: as §1

biotinyl-Leu-oxazolone = assay: self-aminoacylation, catalytic enhancement (BLO) (fold over background); higher = more active; k-Seq, kA / k0A0; sequences stand for … in GGGAAUGGAUCCACAUCUACGAAUUC…UUCACUGCAGACUUGACGAAGCUG
In short: as §1

biotinyl-Ile-oxazolone = assay: self-aminoacylation, catalytic enhancement (BIO) (fold over background); higher = more active; k-Seq, kA / k0A0; sequences stand for … in GGGAAUGGAUCCACAUCUACGAAUUC…UUCACUGCAGACUUGACGAAGCUG
In short: as §1

biotinyl-Trp-oxazolone = assay: self-aminoacylation, catalytic enhancement (BWO) (fold over background); higher = more active; k-Seq, kA / k0A0; sequences stand for … in GGGAAUGGAUCCACAUCUACGAAUUC…UUCACUGCAGACUUGACGAAGCUG
In short: as §1

Sequence	self-aminoacylation (biotinyl-Val-oxazolone)	self-aminoacylation (biotinyl-Met-oxazolone)	self-aminoacylation (biotinyl-Phe-oxazolone)	self-aminoacylation (biotinyl-Leu-oxazolone)	self-aminoacylation (biotinyl-Ile-oxazolone)	self-aminoacylation (biotinyl-Trp-oxazolone)
CCACACUUCAACCUAUCGGUC [Fam1B.1 aminoacylation ribozyme variant]	1.34	0.87	1.18	0.995	1.02	0.993
AAGUUUGCUAUUAGACGCAAG [Fam3.1 aminoacylation ribozyme variant]	0.894	0.712	1.08	0.691	0.577	0.55
CCACACUUCAAUCAGUCGGUC [Fam1B.1 aminoacylation ribozyme variant]	0.796	0.815	0.869	0.723	0.963	0.687
AUUACCCUGGUAAACGAGUGA [Fam2.1 aminoacylation ribozyme variant]	7.77	19.8	150	19.1	7.26	20.1
AUCCCCCUGGUCAUCGAGUGA [Fam2.1 aminoacylation ribozyme variant]	4.12	5.79	45.2	6.5	3.85	7.31
CUACUUCACAGAAUCGGUCUG [Fam1A.1 aminoacylation ribozyme variant]	1.02	1.05	1.11	1.1	1.03	0.917
AUUAACCUAGGUCAUCGGGUG [Fam2.2 aminoacylation ribozyme variant]	15.8	33.2	248	46.3	19.7	22.8
CUACUUCAAACAAUCGAUCUG [Fam1A.1 aminoacylation ribozyme variant]	0.693	0.574	3.4	0.572	0.663	1.34
UCACACUUCCAGCAAUCGGUC [Fam1B.1 aminoacylation ribozyme variant]	1.24	1.14	1.01	1.02	1.19	0.854
CCACACUUUAAGCAACCGGUC [Fam1B.1 aminoacylation ribozyme variant]	0.884	0.613	0.959	0.844	0.795	0.72
UUUCACCUAGGUCAUCGGGUA [Fam2.2 aminoacylation ribozyme variant]	13.9	27.4	184	36.1	14.7	21.2
AUUCACCUAGGCUAUCGGGUG [Fam2.2 aminoacylation ribozyme variant]	3.06	3.76	21.8	4.84	2.43	3.79
CUACUUCCUACAAUCGGUCUG [Fam1A.1 aminoacylation ribozyme variant]	0.801	0.835	0.51	0.671	0.76	0.511
CCACACCUCAUGCAAUCGGUC [Fam1B.1 aminoacylation ribozyme variant]	1.05	0.839	1.19	0.685	0.959	0.975
AUUACCCUGGACAUUGAGUGA [Fam2.1 aminoacylation ribozyme variant]	4.58	11.3	69.4	10.4	4.56	13.4
AAGUUUACUUAUAGUCGCAAG [Fam3.1 aminoacylation ribozyme variant]	1.58	1.92	2.5	1.39	1.86	1.74
CCAGACUUCAAGCAAUCGGUC [Fam1B.1 aminoacylation ribozyme variant]	1.54	1.42	43.9	2.04	1.45	26
GUACUUCAAACAAUCUGUCUG [Fam1A.1 aminoacylation ribozyme variant]	1.56	1.41	4.1	1.45	1.76	3.06
AAGUUUGCUAAUUGGCGCAAG [Fam3.1 aminoacylation ribozyme variant]	0.935	0.964	2.62	1.1	0.829	0.714
AUUCACCAAGGUUAUCGGGUG [Fam2.2 aminoacylation ribozyme variant]	4.4	7.8	63.7	8.94	4.45	6.57
UCACACUUCAACCAAUCGGUC [Fam1B.1 aminoacylation ribozyme variant]	1.75	1.71	54.2	2.44	1.45	37.1
CAACACUUCAAGCAAUCCGUC [Fam1B.1 aminoacylation ribozyme variant]	1.31	1.19	1.12	1.02	1.24	0.727
AUUCACCUAGGCCUUCGGGUG [Fam2.2 aminoacylation ribozyme variant]	3.43	3.67	19.9	5.19	2.49	3.83
AUUCACUUAGGUCAUCGGGAG [Fam2.2 aminoacylation ribozyme variant]	1.11	1.1	0.746	1.22	1.02	0.745
AUUCACGUAGGUCUUCGGGUG [Fam2.2 aminoacylation ribozyme variant]	5.24	4.21	40.1	4.82	3.86	4.88
CCACACUUCGAGCAAUCGGUG [Fam1B.1 aminoacylation ribozyme variant]	1.91	2.48	15.2	3.3	1.62	2.07

Sequence	self-aminoacylation (biotinyl-Val-oxazolone)	self-aminoacylation (biotinyl-Met-oxazolone)	self-aminoacylation (biotinyl-Phe-oxazolone)	self-aminoacylation (biotinyl-Leu-oxazolone)	self-aminoacylation (biotinyl-Ile-oxazolone)	self-aminoacylation (biotinyl-Trp-oxazolone)
AUUACCCUAGUCAUCGAGUGA [Fam2.1 aminoacylation ribozyme variant]	3.05	4.92	18	5.12	2.89	6.3
AUCCACCCAGGUCAUCGGGUG [Fam2.2 aminoacylation ribozyme variant]	5.18	5.87	40	7.15	4.15	7.4
AAGUUAGCUAAUAGUCGGAAG [Fam3.1 aminoacylation ribozyme variant]	1.32	1.12	3.13	1.28	1.07	1.94
AUUCACCUAGGUCAUCGGGAA [Fam2.2 aminoacylation ribozyme variant]	4.14	5.51	26	9.17	4.54	6.07
CUACUUCAUACAACCGGUCUG [Fam1A.1 aminoacylation ribozyme variant]	0.84	0.621	0.504	0.751	0.925	0.415
AUAACCAUGGUCAUCGAGUGA [Fam2.1 aminoacylation ribozyme variant]	3.7	7.91	23.8	7.68	3.91	8.43
AUUACGCUGGUCAUAGAGUGA [Fam2.1 aminoacylation ribozyme variant]	2.23	3.31	7.49	3.54	2.33	4.14
AUUGACCUAGGUCAUCGGGGG [Fam2.2 aminoacylation ribozyme variant]	3.04	3.21	12.8	4.57	3.41	3.93
UAGUUUGCUAAGAGUCGCAAG [Fam3.1 aminoacylation ribozyme variant]	1.18	1.1	1.77	0.952	1.12	1.22
AUUACCAUGGUCAUCAAGUGA [Fam2.1 aminoacylation ribozyme variant]	2.4	3.69	5.16	4.04	2.22	5.09
ACGUUUGCUAAUAGGCGCAAG [Fam3.1 aminoacylation ribozyme variant]	1.61	1.35	5.88	1.67	1.94	0.911
CAACACUUCAAGCAAUCGGUU [Fam1B.1 aminoacylation ribozyme variant]	1.52	1.64	6.96	1.76	1.84	4.96
AAGUUUGCUAAUAGUGGCAAC [Fam3.1 aminoacylation ribozyme variant]	0.822	0.737	0.826	0.783	0.805	0.575
AUUCCCCUAGGUCAUCGAGUG [Fam2.2 aminoacylation ribozyme variant]	7.52	11	66.1	15	7.79	12.6
AUUACCCUGGUCGCCGAGUGA [Fam2.1 aminoacylation ribozyme variant]	2.58	4.14	22.8	5.59	3.48	4.48
CUACUUCAAACGAUCGCUCUG [Fam1A.1 aminoacylation ribozyme variant]	0.838	0.689	1.11	0.654	0.842	0.678
AUUCACCUAGGACAUUGGGUG [Fam2.2 aminoacylation ribozyme variant]	2.28	3.42	25.8	4	2.24	2.79
CUACUUCAAACGAUCGGGCUG [Fam1A.1 aminoacylation ribozyme variant]	1.45	1.09	1.11	1.23	1.49	1.28
CUACUUCAAAUAAUCGGUCCG [Fam1A.1 aminoacylation ribozyme variant]	0.657	0.599	2.68	0.654	0.585	1.76
CUACUUCAACCAAUCGGUCUU [Fam1A.1 aminoacylation ribozyme variant]	0.934	0.975	16	1.32	1.02	8.43
AUUACCCUGGUCAUCGGGUUA [Fam2.1 aminoacylation ribozyme variant]	17.8	38.5	218	42.4	12.3	45.8
AUUACCCUGGUCAUAGAGUGA [Fam2.1 aminoacylation ribozyme variant]	4.94	10.4	54.8	9.8	4.72	11.9
CUUUUUCAAACAAUCGGUCUG [Fam1A.1 aminoacylation ribozyme variant]	0.815	0.67	6.81	0.89	0.86	3.86
AUGCACCUAGGUCAUCGCGUG [Fam2.2 aminoacylation ribozyme variant]	5.84	8.45	56	12	5.09	11
AUUCACCUAUGUCAUCGGCUG [Fam2.2 aminoacylation ribozyme variant]	1.3	1.21	0.644	1.26	1.38	0.681
